Test results taken from patent US20140087995A1 (published 2014).
Numbered stars: 1 amine (or outer) side, 2 acyl side, 3 side chain; on linkers, the order of the positions; unused ones are H or OH. Bridge positions count the residues as written; N and C are the ends. Side chains are listed from the residue outwards. Ends that are not written are not given here. * marks the point of attachment. C20 diacid = O=C(O)CCCCCCCCCCCCCCCCCCC(=O)*; γGlu = O=C(O)[C@H](CCC(=O)[*:2])N[*:1]

T1: rat calcitonin receptor (rat, UniProt P32214 25-516)
T1 construct: whole, on cells; Membranes of transiently transfected BHK tk'ts 13 cells; also called rCTR; rat calcitonin (a) receptor
T1 sequence (looked up): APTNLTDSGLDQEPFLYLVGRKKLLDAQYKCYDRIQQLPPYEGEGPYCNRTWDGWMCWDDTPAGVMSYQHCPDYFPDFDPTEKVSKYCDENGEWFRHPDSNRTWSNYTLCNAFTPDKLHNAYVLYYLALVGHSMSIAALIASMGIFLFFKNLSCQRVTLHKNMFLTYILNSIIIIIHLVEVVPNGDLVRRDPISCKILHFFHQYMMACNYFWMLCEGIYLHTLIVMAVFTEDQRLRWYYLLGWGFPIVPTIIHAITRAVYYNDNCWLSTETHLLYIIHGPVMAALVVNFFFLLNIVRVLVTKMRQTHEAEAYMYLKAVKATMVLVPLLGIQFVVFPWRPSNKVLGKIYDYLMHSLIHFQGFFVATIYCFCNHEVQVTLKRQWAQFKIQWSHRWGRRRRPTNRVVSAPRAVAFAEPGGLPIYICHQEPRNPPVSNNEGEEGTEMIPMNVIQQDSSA

T2: human calcitonin receptor (human, UniProt P30988 25-474)
T2 construct: whole, on cells; Membranes of stably transfected cells; also called hCTR; hCT
T2 sequence (looked up): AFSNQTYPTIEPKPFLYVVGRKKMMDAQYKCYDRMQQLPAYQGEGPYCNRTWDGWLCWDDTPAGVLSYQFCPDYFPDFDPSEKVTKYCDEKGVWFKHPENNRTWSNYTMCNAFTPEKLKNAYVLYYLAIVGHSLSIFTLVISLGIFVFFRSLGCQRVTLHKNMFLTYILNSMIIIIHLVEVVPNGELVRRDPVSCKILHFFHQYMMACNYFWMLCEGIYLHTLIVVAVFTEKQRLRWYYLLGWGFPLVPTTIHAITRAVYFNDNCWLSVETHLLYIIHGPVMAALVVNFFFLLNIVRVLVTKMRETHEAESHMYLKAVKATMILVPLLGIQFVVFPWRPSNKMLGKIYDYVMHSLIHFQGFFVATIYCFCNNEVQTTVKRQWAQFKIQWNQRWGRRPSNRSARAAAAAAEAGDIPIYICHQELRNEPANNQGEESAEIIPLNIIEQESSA

T3: rat amylin receptor (rat calcitonin receptor + rat RAMP 3) (rat, UniProt P32214 25-516; Q9JJ73 23-147)
T3 construct: whole, on cells; Membranes of transiently transfected BHK tk'ts 13 cells; also called rAmylin-R; rat amylin 3(a) receptor
T3 sequence (looked up) 1: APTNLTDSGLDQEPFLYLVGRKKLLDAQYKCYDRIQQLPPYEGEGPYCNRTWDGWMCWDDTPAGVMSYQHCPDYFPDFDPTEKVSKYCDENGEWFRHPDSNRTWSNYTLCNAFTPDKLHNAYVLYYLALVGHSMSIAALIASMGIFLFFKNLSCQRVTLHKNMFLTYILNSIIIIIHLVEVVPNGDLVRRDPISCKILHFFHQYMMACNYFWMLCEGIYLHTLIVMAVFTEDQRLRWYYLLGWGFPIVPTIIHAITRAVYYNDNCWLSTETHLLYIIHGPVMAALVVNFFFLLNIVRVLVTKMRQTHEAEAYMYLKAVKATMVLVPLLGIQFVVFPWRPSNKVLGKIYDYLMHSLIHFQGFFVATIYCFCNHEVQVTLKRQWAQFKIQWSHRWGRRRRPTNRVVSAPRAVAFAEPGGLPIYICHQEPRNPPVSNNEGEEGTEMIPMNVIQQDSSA
T3 sequence (looked up) 2: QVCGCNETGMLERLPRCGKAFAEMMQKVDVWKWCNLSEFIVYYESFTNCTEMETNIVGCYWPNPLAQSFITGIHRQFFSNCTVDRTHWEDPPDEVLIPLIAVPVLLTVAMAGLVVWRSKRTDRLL


Assays:
rat calcitonin receptor [1] = target: T1, rat calcitonin receptor; experiment: ratio of IC50 on rat calcitonin receptor to IC50 on rat amylin receptor (reference m40)
[2] = target: T2, human calcitonin receptor; experiment: ratio of IC50 on human calcitonin receptor to IC50 on human amylin receptor (reference m42), SPA competition
Outline: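 Membranes (35 ng/μL final) + SPA beads, 50 mM Hepes pH 7.4 buffer with 1 mM CaCl2, 5 mM MgCl₂, 0.1% OA, 0.02% Tween20; 120 min, 25° C, shaking; centrifuged, counted; IC₅₀ by one-site binding competition.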

rat calcitonin receptor [3] = target: T1, rat calcitonin receptor; experiment: SPA competition with 125I-calcitonin on membranes of BHK tk'ts 13 cells with rat calcitonin receptor (Assay VIII)
[4] = target: T3, rat amylin receptor (rat calcitonin …); experiment: SPA competition with 125I-rat amylin on membranes of BHK tk'ts 13 cells with rat calcitonin receptor + rat RAMP3 (Assay VI)

Row | Binder | Ratio rCT/rAmylin binding (rat calcitonin receptor [1]) | Ratio hCT/hAmylin binding [2] | IC50 (rat calcitonin receptor [3]) | IC50 [4]
1 | K([γGlu-γGlu-C20 diacid])CNTATCATQRLAEFLRHSSNNPGAILSSTNVGPETY-NH2 (disulfide 2-7; N-terminus assumed; SMILES CC[C@H](C)[C@H](NC(=O)[C@H](C)NC(=O)CNC(=O)[C@@H]1CCCN1C(=O)[C@H](CC(N)=O)NC(=O)[C@H](CC(N)=O)NC(=O)[C@H](CO)NC(=O)[C@H](CO)NC(=O)[C@H](Cc1c[nH]cn1)NC(=O)[C@H](CCCNC(=N)N)NC(=O)[C@H](CC(C)C)NC(=O)[C@H](Cc1ccccc1)NC(=O)[C@H](CCC(=O)O)NC(=O)[C@H](C)NC(=O)[C@H](CC(C)C)NC(=O)[C@H](CCCNC(=N)N)NC(=O)[C@H](CCC(N)=O)NC(=O)[C@@H](NC(=O)[C@H](C)NC(=O)[C@@H]1CSSC[C@H](NC(=O)[C@@H](N)CCCCNC(=O)CC[C@H](NC(=O)CC[C@H](NC(=O)CCCCCCCCCCCCCCCCCCC(=O)O)C(=O)O)C(=O)O)C(=O)N[C@@H](CC(N)=O)C(=O)N[C@@H]([C@@H](C)O)C(=O)N[C@@H](C)C(=O)N[C@@H]([C@@H](C)O)C(=O)N1)[C@@H](C)O)C(=O)N[C@@H](CC(C)C)C(=O)N[C@@H](CO)C(=O)N[C@@H](CO)C(=O)N[C@H](C(=O)N[C@@H](CC(N)=O)C(=O)N[C@H](C(=O)NCC(=O)N1CCC[C@H]1C(=O)N[C@@H](CCC(=O)O)C(=O)N[C@H](C(=O)N[C@@H](Cc1ccc(O)cc1)C(N)=O)[C@@H](C)O)C(C)C)[C@@H](C)O, Synthetic acylated analogue of human amylin) | 132 | 7.8 | 86.8 nM | 0.659 nM
2 | K([γGlu-γGlu-C20 diacid])CNTATCATQRLASFLRHSSPNFGAIPSSTNVGPETY-NH2 (disulfide 2-7; N-terminus assumed; SMILES CC[C@H](C)[C@H](NC(=O)[C@H](C)NC(=O)CNC(=O)[C@H](Cc1ccccc1)NC(=O)[C@H](CC(N)=O)NC(=O)[C@@H]1CCCN1C(=O)[C@H](CO)NC(=O)[C@H](CO)NC(=O)[C@H](Cc1c[nH]cn1)NC(=O)[C@H](CCCNC(=N)N)NC(=O)[C@H](CC(C)C)NC(=O)[C@H](Cc1ccccc1)NC(=O)[C@H](CO)NC(=O)[C@H](C)NC(=O)[C@H](CC(C)C)NC(=O)[C@H](CCCNC(=N)N)NC(=O)[C@H](CCC(N)=O)NC(=O)[C@@H](NC(=O)[C@H](C)NC(=O)[C@@H]1CSSC[C@H](NC(=O)[C@@H](N)CCCCNC(=O)CC[C@H](NC(=O)CC[C@H](NC(=O)CCCCCCCCCCCCCCCCCCC(=O)O)C(=O)O)C(=O)O)C(=O)N[C@@H](CC(N)=O)C(=O)N[C@@H]([C@@H](C)O)C(=O)N[C@@H](C)C(=O)N[C@@H]([C@@H](C)O)C(=O)N1)[C@@H](C)O)C(=O)N1CCC[C@H]1C(=O)N[C@@H](CO)C(=O)N[C@@H](CO)C(=O)N[C@H](C(=O)N[C@@H](CC(N)=O)C(=O)N[C@H](C(=O)NCC(=O)N1CCC[C@H]1C(=O)N[C@@H](CCC(=O)O)C(=O)N[C@H](C(=O)N[C@@H](Cc1ccc(O)cc1)C(N)=O)[C@@H](C)O)C(C)C)[C@@H](C)O, Synthetic acylated analogue of human amylin; also called compound 120) | 868 | 45.3 | 140 nM | 0.161 nM
3 | K([γGlu-γGlu-C20 diacid])CNTATCATQRLAHFLRHSSPNFGAIPSSTNVGSNTY-NH2 (disulfide 2-7; N-terminus assumed; SMILES CC[C@H](C)[C@H](NC(=O)[C@H](C)NC(=O)CNC(=O)[C@H](Cc1ccccc1)NC(=O)[C@H](CC(N)=O)NC(=O)[C@@H]1CCCN1C(=O)[C@H](CO)NC(=O)[C@H](CO)NC(=O)[C@H](Cc1c[nH]cn1)NC(=O)[C@H](CCCNC(=N)N)NC(=O)[C@H](CC(C)C)NC(=O)[C@H](Cc1ccccc1)NC(=O)[C@H](Cc1c[nH]cn1)NC(=O)[C@H](C)NC(=O)[C@H](CC(C)C)NC(=O)[C@H](CCCNC(=N)N)NC(=O)[C@H](CCC(N)=O)NC(=O)[C@@H](NC(=O)[C@H](C)NC(=O)[C@@H]1CSSC[C@H](NC(=O)[C@@H](N)CCCCNC(=O)CC[C@H](NC(=O)CC[C@H](NC(=O)CCCCCCCCCCCCCCCCCCC(=O)O)C(=O)O)C(=O)O)C(=O)N[C@@H](CC(N)=O)C(=O)N[C@@H]([C@@H](C)O)C(=O)N[C@@H](C)C(=O)N[C@@H]([C@@H](C)O)C(=O)N1)[C@@H](C)O)C(=O)N1CCC[C@H]1C(=O)N[C@@H](CO)C(=O)N[C@@H](CO)C(=O)N[C@H](C(=O)N[C@@H](CC(N)=O)C(=O)N[C@H](C(=O)NCC(=O)N[C@@H](CO)C(=O)N[C@@H](CC(N)=O)C(=O)N[C@H](C(=O)N[C@@H](Cc1ccc(O)cc1)C(N)=O)[C@@H](C)O)C(C)C)[C@@H](C)O, Synthetic acylated analogue of human amylin; also called compound 92) | 156 | 145 | 104 nM | 0.668 nM
4 | {C20 diacid-γGlu}-GRCNTATCATQRLAHFLRHSSPNFGAIPSSTNVGHNTY-NH2 (disulfide 3-8; SMILES CC[C@H](C)[C@H](NC(=O)[C@H](C)NC(=O)CNC(=O)[C@H](Cc1ccccc1)NC(=O)[C@H](CC(N)=O)NC(=O)[C@@H]1CCCN1C(=O)[C@H](CO)NC(=O)[C@H](CO)NC(=O)[C@H](Cc1c[nH]cn1)NC(=O)[C@H](CCCNC(=N)N)NC(=O)[C@H](CC(C)C)NC(=O)[C@H](Cc1ccccc1)NC(=O)[C@H](Cc1c[nH]cn1)NC(=O)[C@H](C)NC(=O)[C@H](CC(C)C)NC(=O)[C@H](CCCNC(=N)N)NC(=O)[C@H](CCC(N)=O)NC(=O)[C@@H](NC(=O)[C@H](C)NC(=O)[C@@H]1CSSC[C@H](NC(=O)[C@H](CCCNC(=N)N)NC(=O)CNC(=O)CC[C@H](NC(=O)CCCCCCCCCCCCCCCCCCC(=O)O)C(=O)O)C(=O)N[C@@H](CC(N)=O)C(=O)N[C@@H]([C@@H](C)O)C(=O)N[C@@H](C)C(=O)N[C@@H]([C@@H](C)O)C(=O)N1)[C@@H](C)O)C(=O)N1CCC[C@H]1C(=O)N[C@@H](CO)C(=O)N[C@@H](CO)C(=O)N[C@H](C(=O)N[C@@H](CC(N)=O)C(=O)N[C@H](C(=O)NCC(=O)N[C@@H](Cc1c[nH]cn1)C(=O)N[C@@H](CC(N)=O)C(=O)N[C@H](C(=O)N[C@@H](Cc1ccc(O)cc1)C(N)=O)[C@@H](C)O)C(C)C)[C@@H](C)O, Synthetic acylated analogue of human amylin, extended by Gly at position -1; also called compound 100) | 27.7 | 65.3 | 311 nM | 11.2 nM
5 | {C20 diacid-γGlu}-GRCNTATCATQRLAAFLRHSSPNFGAIPSSTNVGHNTY-NH2 (disulfide 3-8; SMILES CC[C@H](C)[C@H](NC(=O)[C@H](C)NC(=O)CNC(=O)[C@H](Cc1ccccc1)NC(=O)[C@H](CC(N)=O)NC(=O)[C@@H]1CCCN1C(=O)[C@H](CO)NC(=O)[C@H](CO)NC(=O)[C@H](Cc1c[nH]cn1)NC(=O)[C@H](CCCNC(=N)N)NC(=O)[C@H](CC(C)C)NC(=O)[C@H](Cc1ccccc1)NC(=O)[C@H](C)NC(=O)[C@H](C)NC(=O)[C@H](CC(C)C)NC(=O)[C@H](CCCNC(=N)N)NC(=O)[C@H](CCC(N)=O)NC(=O)[C@@H](NC(=O)[C@H](C)NC(=O)[C@@H]1CSSC[C@H](NC(=O)[C@H](CCCNC(=N)N)NC(=O)CNC(=O)CC[C@H](NC(=O)CCCCCCCCCCCCCCCCCCC(=O)O)C(=O)O)C(=O)N[C@@H](CC(N)=O)C(=O)N[C@@H]([C@@H](C)O)C(=O)N[C@@H](C)C(=O)N[C@@H]([C@@H](C)O)C(=O)N1)[C@@H](C)O)C(=O)N1CCC[C@H]1C(=O)N[C@@H](CO)C(=O)N[C@@H](CO)C(=O)N[C@H](C(=O)N[C@@H](CC(N)=O)C(=O)N[C@H](C(=O)NCC(=O)N[C@@H](Cc1c[nH]cn1)C(=O)N[C@@H](CC(N)=O)C(=O)N[C@H](C(=O)N[C@@H](Cc1ccc(O)cc1)C(N)=O)[C@@H](C)O)C(C)C)[C@@H](C)O, Synthetic acylated analogue of human amylin, extended by Gly at position -1) | 60.9 | 68.6 | 492 nM | 8.07 nM
